This assay has as its target full-length H2A-H2B (S. cerevisiae, UniProt P04911 1-132; P02293 1-131). In words: ITC. On the technique in general: ITC needs no label: the signal is the heat of the interaction.

B1: Pob3-C (domain or fragment)
chain: EVQERLQTALGSDSDEEDINMGSAGEDDESVDEDFQVSSDNDADEVAEEFDSDAALSDAEGGSDEERPSKKPKVE
The Kd is the free concentration of one partner at which half of the binding sites on the other are occupied at equilibrium, for simple one-to-one binding. For orientation: stoichiometry N means the number of molecules, sites or subunits per partner or assembly. For the molecule B1, binding was put at a Kd of 300 nM and the “stoichiometry N” value came to 1.

These data come from paper PMC4620744 (Molecular cell, 2015).
